Data taken from patent US20250051821.

T1: IFF05588
T1 chain: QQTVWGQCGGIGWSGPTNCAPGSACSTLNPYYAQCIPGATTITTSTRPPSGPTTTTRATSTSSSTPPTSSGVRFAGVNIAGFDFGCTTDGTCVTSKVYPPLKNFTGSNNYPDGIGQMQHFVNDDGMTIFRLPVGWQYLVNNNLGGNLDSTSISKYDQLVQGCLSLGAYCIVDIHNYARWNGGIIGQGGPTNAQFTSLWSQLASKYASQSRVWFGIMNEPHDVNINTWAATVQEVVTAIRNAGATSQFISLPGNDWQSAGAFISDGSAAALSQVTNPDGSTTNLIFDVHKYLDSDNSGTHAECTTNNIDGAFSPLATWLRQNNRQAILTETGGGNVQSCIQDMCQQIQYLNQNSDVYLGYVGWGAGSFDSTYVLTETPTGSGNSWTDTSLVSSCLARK


Molecular target: T1, IFF05588

Protein	Relative late peak area (centered, scaled, averaged over 5, 10 and 15 min)	Relative late peak area (centered, scaled, averaged over doses, 24 h; sample diluted 10-fold)	Relative late peak area (reverse phase chromatography, 24 h)	Relative late peak area (centered, scaled, averaged over doses, 24 h; sample diluted 2-fold)	Relative late peak area (centered, scaled, averaged over doses, 24 h; sample diluted 1-fold)
IFF21348 (protein) TLNKPVIQPNFPGGGLASLGPGLLNNLAITSSTSDVWGAGWIPADCKSLVQGAGLSPFDVIPFNIHLSDCSQTWTFCRHKNSPLSQTDIINLFARVPVRMRDFIRHFVFIPGATSAGSNGDNTLMVGNVDITVFLHEIGHSLDSHAFDPSYGVPFSTGNVWVSNYNLDSAVTDSYAQTSQQENFAQETVVSVYDKVVPGGIGTIQPNWQAIFHQYATLEGYIGNTIIPGGTCVNRLTDSQPVPMGNSAKFRRTMGPKPTVSLSPDVKEIKAIPMSDSITMTSFDEFGNVNGTYVIQL	1.4	0.68	–	–	–
IFF21350 (protein) NLNKPVIQPNFPGNGLASLGQGILDHLAPTQSTWDDWGAGWIPQDCKSLAQGAGLSPNDIIPFNIHYADCAQTWTFCRHKNSPLSEVNIIDLFGRLPVRMRQFVRHLVFIPGNKSAGSNGDNVLMVGPVDITVFAHEIGHSLDSHAFDPSYGVPFSTGNVWVSNYNLDSAVPDPYAQSSQQENFAQHTVISIYDKAVPGGIGTIQPNWQAIFHQYATLEGYIGDIIIPGGTCTHRLTDSPPVTMASKRRALGPKPKVALSPEVEEIEAIPMKNTITMTSFDEAGKPNGSYVINL	1.55	1.06	0.61	–	–
IFF21333 (protein) RLDKPIINPTFPGGGLDSLAQGLLDHLAPTQSTHDNWGAGYIPEDCKNLAKSNGFSPFDITPFNIHYSDCNDVWIFCRHKDSPLSQIDMIDLFGRMPVHMREYIRHVIALPGNKSAGSSGDNIQMNGAVGITVFVHETGHSLDSHGFDPKYGVPFSNSKTWLDNYNMDTAVCDSYAQSSQQENLAQETVVGLYDKVVPGGVGNIQPNWKAIFHQYATVQGYLGDILTPGGTCRHRLANSKPVPMGDSAKFRRDLGPAPDVSLSSDVIEIESIPMGSSIRITEFDEAGNPIGSKNVSLVM	0.26	–	0.59	0.69	–
IFF21332 (protein) ALNKPIINPQFPNGGLGSLGPGLMQHLQPAKRTWDKWGPGWIPEDCKNLAKSNNFSPFDITPFNIHYEDCPDSWVFCRHKDSPLSETAMIDMFGRMPVKMRSYIRHIIALPGTRSAGSAGDNIQMNGDCEITVFVHETGHSLDSHAFDPKYGAPFSNSKVWLDNYNQDSAVCDGYAQSSQQENLAQETVVGLFDKVVPGGVGTIQPNWKAIFHQYATVQGYLGDQILPGGTCSHRLTNSKPVPMGDSKKSRRGLGPAPDVSLSAHVTEIEPIAMGDSIVLTQYNDGGDAISKREVTLN	0.3	–	0.65	0.8	–
IFF21354 (protein) RLDKPVIKPPFPNGGLGSLGPDLMSSLKVASHTTDDWDKNHLPRDCKSLAQNAGFSPLDVSAFNIHYDDCKSQPWVFCRHKDSPLSKKDMTELFGRMPVRMRQFIRHIIALPGQRSAGSSGDNIQMNGDVEITVFIHETGHSLDSHAFDPKLGAPFSNGKAWTDAYNKDSAVTDDYAQTSQQENFAQETVVSVYDKNVKGGIGKIQPNAQAIRNAYTTLEKYIGNIIIPGGVCTHRLENSPSVPKADSARTRLVPKSEPVGEGLTRIEPIAMGPITPASY	1.34	0.87	0.67	–	–
IFF21342 (protein) NLNKPVITPNFPGNGLASLGQGLMDHLAPTHSTWDDWGAGWIPADCKSMVQGAGFSPNDIIPFNIHYDDCAQSWTFCRHKNSPLSEIQILDIFGRLPVRMRQFVRHLVFVPGNKSAGSNGDNVLMVGDVDVTVFAHEIGHSLDSHAFDPSYGVPFSTGNVWVSNYNLDSAVPDPYAQSSQQENFAQETVVSLYDKVVPGGIGTIQPNWQAIFHQYATLEGYIGNVIIPGGTCTHRLTDSPPVTMSGSKKSRRALGPKPKVSLSPKVKEIEAIPMESSITMTSFDEHGRPNGTYVINL	0.12	–	–	0.73	–
IFF21341 (protein) NLNKPVITPNFPGNGLASLGPGLMNNLAPTHSTWDDWGAGWIPSDCKSMVQGAGFSPNDIIPFNIHYDDCAQSWTFCRHKNSPLSEIQILDIFGRLPVRMRQFVRHLVFVPGNKSAGSNGDNVLMVGDVDVTVFAHEIGHSLDSHAFDPSYGVPFSTGNVWVSNYNLDSAVPDPYAQSSQQENFAQETVVSLYDKVVPGGIGTIQPNWQAIFHQYATLEGYIGNVIIPGGTCTHRLTDSAPVTMSGSKKSRRALGPKPKVSLSPKVKEIEAIPMESSITMTSFDEHGKPNGTYVVHL	1.03	0.62	–	–	–
IFF21379 (protein) QLDKPALTSNLDYLLEGNTNNLPRNGGPYWGKWADGLMPADCKSIAESQGLNPTDFEVWDIFYNDCQDGWSFCRHKDSSDSFETLVETFGRVPVRMRSWVRHILTIPGPNWAFNSNGNIALSGTTSSNLDVALHETAHSLDLLGAYGNGALSSMQEWLNAYNRDSHVPDEYARSNQVENVAQNTVVAIYDKVVPGGFPGIQPNYQRIQNQYTLVQAKAGNQILPGGTCDRHLENSDTVPMSGLSLAYKLDSEKSRGVWHDSAFKGTYMNIVKEFTPFNTQEFHH	-0.02	–	0.45	0.75	–
IFF21343 (protein) NLDKPVIQPNFPGNGLASLGQGLMDHLAPTHSTWDDWGAGWIPQDCKSMAQGAGFSANDIIPFNIHYDDCAQSWTFCRHKNSPLSELQILDIFGRLPVRMRSFVRHLVFVPGNKSAGSNGDNVLMVGAVDVTVFAHEIGHSLDSHAFDPSYGVPFSTGSVWTSNYNLDSAVPDPYAQTSQQENFAQETVVSLYDKVVPGGIGTIQPNWKAIFHQYATLQGYIGNVIIPGGTCTHRLTDSPPVTMSSAKLRRGLGPKPNVSLSPKVKEIESIPMESSITMTSFDEHGKPNGTYVVHLK	0.33	–	–	0.8	–
IFF21334 (protein) ILDKPVIQPNFPGNGLASLGQGLMDNLSPTHSTWDDWGAGWIPQDCKSLVEGAGFSASDVIPFNIHYDDCAQTWTFCRHKDSPLSEITILDIFGRLPVRMRSFVRHLVFIPGNKSAGSSGDNVLMVGAVDVTVFAHEIGHSLDSHAFDPSYGVPFSTGNVWISNYNLDSAVTDPYAQTSQQENFAQETVVSLYDKVVPGGIGTIQPNWQAIYHQYATLEGYIGDVIIPGGTCTHRLTDSPPVQMSSSSKLRRALGPKPHVALSPEVEEIEAIPMKSSITMTSFDAAGKPNGTYVINL	1.38	0.97	0.65	–	–
IFF21351 (protein) ALNKPVIQPNFPGNGLASLGQGIMQHLTPTQSTWDDWGAGWIPQDCKSIVQGAGFSPNDIIPFNIHYTDCGQTWTFCRHKNSPLSEINIIDIFGRLPVRMRQFVRHLVFVPGNKSAGSNGDNILMVGPVDVTVFIHEIGHSLDSHAFDPSYGVPFSTGNVWVSNYNLDSAVPDPYAQSSQQENFAQHTVVSIFDKVVPGGIGTIQPNWQAIFHQYATLEGYIGDTIIPGGTCTHRLTDSPPVTMASKRRGLGPKPKVALSPEVEEIESIPMKSTFKMTSFDEAGKPSGNYVINL	-0.57	–	–	–	0.66
